Experimental data: patent US20220220204A1 (NANJING GENSCRIPT BIOTECH, published 2022)

Biological target: human PD-L1 (PD-L1 aAPC/CHO-K1 cells) (human, UniProt Q9NZQ7 19-290)
Test: cell-based or functional assay

human PD-L1 (PD-L1 aAPC/CHO-K1 cells), sequence (Q9NZQ7 19-290): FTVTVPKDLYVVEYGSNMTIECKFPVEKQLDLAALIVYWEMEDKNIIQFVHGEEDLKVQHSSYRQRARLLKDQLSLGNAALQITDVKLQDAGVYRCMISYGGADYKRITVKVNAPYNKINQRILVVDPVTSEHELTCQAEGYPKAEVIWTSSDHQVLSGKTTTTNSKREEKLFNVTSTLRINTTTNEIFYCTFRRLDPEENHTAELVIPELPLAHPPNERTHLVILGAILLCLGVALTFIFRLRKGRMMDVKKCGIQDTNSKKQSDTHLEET

Row | Bottom (PD-1/PD-L1 blockade bioassay) | Log EC50 (PD-1/PD-L1 blockade bioassay) | Top (PD-1/PD-L1 blockade bioassay) | Binder
1 | 28900 | -0.323 | 113000 | PDL1HCv1 (antibody, human IgG1, kappa, N297A, V domains shown) VH: EVQLVQSGAEVKKPGASVKVSCKASGYIFTGYGITWVRQAPGQGLEWMGEIFPRRVQTYYSEKFKGRVTMTTDTSTSTAYMELRSLRSDDTAVYYCARDYDPYFALDYWGQGTTVTVSS VL: DIQMTQSPSSLSASVGDRVTITCRASQDVSTAVDWYQQKPGKAPKLLIYSASYRYTGVPDRFSGSGSGTDFTFTISSLQPEDIATYYCQQHYSIPFTFGQGTKLEIKR
2 | 27800 | -0.111 | 110000 | PDL1HCv5 (antibody, human IgG1, kappa, N297A, V domains shown) VH: EVQLVQSGAEVKKPGASVKVSCKASGYIFTGYGITWVRQAPGQGLEWMGEIFPRRVQTYYSEKFKGRVTMTADTSTSTAYMELRSLRSDDTAVYYCARDYDPYFALDYWGQGTTVTVSS VL: DIQMTQSPSSLSASVGDRVTITCRASQDVSTAVDWYQQKPGKAPKLLIYSASYRYTGVPDRFSGSGSGTDFTFTISSLQPEDIATYYCQQHYSIPFTFGQGTKLEIKR
